Source: PMC7954794, “Protein context shapes the specificity of SH3 domain-mediated interactions in vivo” (Nature Communications, 2021)

Tested on: growth of yeast strains under 51 stress conditions
Assay: Growth assays in 51 stress conditions (Fig. 1E-F, S2D, S5B)
Type: cell-based, Saccharomyces cerevisiae
Design: key to Growth (Fig. S2D) / growth of ABP1 SH3-swapped strains in stress condition: log2 colony size, average of median per strain (growth score)
Conditions: ABP1 SH3-swapped strains
Method in brief: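 Yeast WT, SH3-deleted, KO, SH3-swapped and SH3-shuffled strains pinned in 1536 format, 12 replicates each; pregrown on YPD 2 days at 30 °C, then replicated onto 51 media at 37 °C and imaged every 2 h. Growth score = mean of per-plate median log2 colony size at 74 h.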

B1: CYK3 (protein, UniProt Q07533 1-885, looked up)
Cytokinesis protein 3: MATNLTSLKPPFKVKARYGWSGQTKGDLGFLEGDIMEVTRIAGSWFYGKLLRNKKCSGYFPHNFVILLEERLNSSTENGRQPSKIVESFEKSNKVVIPPVPSRYSDERPRPKKKLSSSMPNSPKKPVDSLTKARKAKSKEMVNEKNIYNTQSSRHHNNSAPNLPLASHSKPQVRNFEESMNNPLPPLPPLPDLDNMRKTDKRAPKKSYSANDLHMARSSREYNYYKDNQKFYDGFIPEKRYSLEEDSISSGLFSNSQYLNDSACSSENSFALMSDFSATSAGSFARHKYAQSFSDSLQRSQNANGCSTKINDSQEFGDSNASSRNGKMGDILRKIIIPKRNTNIYSSSVSSPKSPKAYPKLPDIQNLNLSATPDEARDWIAVKCHLNRARTLTKYDKHPRYMRALEENRDLILHPQDSIYNGLNTNEVKGNTKPGLVDVELAELNIEYIDKMTWKRCIRDGTMTLDSWAQTTFSARYSTVLEKLRGIYIFCTEMFALTDDNGTSDFSAEPQNLEKILYRKHCTPYELTWLFKKLANSLGITCEIVIGFLKTPSAINWEFKYNHCWLRILVNKEWRFIDVILGNVTNPIHEFVNNRKIKKAENSYFLMAPLEMIYTHIPPREFEQHIVPSIDQLSALYLPLVFPSFFKNELKLYKFSTALSFLEDSEIYECSLEIPNDVEVFASVVIPTDNEEASSAYRNMELALTQIKKQKAESGRRIALIKAVLPPNVNKGSLYIHSGVRGTQTSIANIHPLSMMVPLTHKGSNMKYEFVIKIPSESIQKIELYIVEPQSRYLFVGNEYSFEVIQSPSDGIVYSSDEGPNQNRKQPMAIKSPSGRVHELVKSDPHFPYGTWKGSIKIKEPGVWSALVIADSGIGWSVFAEWLCV
Bathophenanthroline.0.1uM
  Growth (Fig. S2D): 10.8556
Bathophenanthroline.10uM
  Growth (Fig. S2D): 10.6576
Bathophenanthroline.1uM
  Growth (Fig. S2D): 10.8513
CaCl2.100mM
  Growth (Fig. S2D): 10.8897
CaCl2.250mM
  Growth (Fig. S2D): 10.7885
CaCl2.500mM
  Growth (Fig. S2D): 10.3059
Caffein.10mM
  Growth (Fig. S2D): 9.982
Caffein.2mM
  Growth (Fig. S2D): 10.9591
CdCl2.100uM
  Growth (Fig. S2D): 9.489
CdCl2.10uM
  Growth (Fig. S2D): 10.8859
CdCl2.50uM
  Growth (Fig. S2D): 9.907
CuSO4.1mM
  Growth (Fig. S2D): 10.4416
CuSO4.5mM
  Growth (Fig. S2D): 8.067
Cycloheximide.0.05.uM
  Growth (Fig. S2D): 11.0397
Cycloheximide.0.2.uM
  Growth (Fig. S2D): 10.6845
Cycloheximide.0.5.uM
  Growth (Fig. S2D): 10.0538
DMSO.2.
  Growth (Fig. S2D): 11.074
DMSO.6.
  Growth (Fig. S2D): 9.997
DMSO.8.
  Growth (Fig. S2D): 9.341
Ethanol.2.
  Growth (Fig. S2D): 10.829
Ethanol.6.
  Growth (Fig. S2D): 10.3434
Ethanol.8.
  Growth (Fig. S2D): 10.1675
Galactose.2.
  Growth (Fig. S2D): 10.8951
Glycerol.2.
  Growth (Fig. S2D): 9.685
Hydroxyurea.25mM
  Growth (Fig. S2D): 10.7817
Hygromycin.190uM
  Growth (Fig. S2D): 10.9791
Hygromycin.19uM
  Growth (Fig. S2D): 10.9621
Hygromycin.95uM
  Growth (Fig. S2D): 11.0521
MMS.0.004.
  Growth (Fig. S2D): 10.9601
MMS.0.02.
  Growth (Fig. S2D): 10.7185
MMS.0.04.
  Growth (Fig. S2D): 9.916
Menadione.100uM
  Growth (Fig. S2D): 10.6134
Menadione.200uM
  Growth (Fig. S2D): 10.436
Menadione.50uM
  Growth (Fig. S2D): 10.8202
NaCl.0.25M
  Growth (Fig. S2D): 10.7906
NaCl.1M
  Growth (Fig. S2D): 9.617
Nitroquinoline.10uM
  Growth (Fig. S2D): 10.7078
Nitroquinoline.50uM
  Growth (Fig. S2D): 10.6701
Nystatin.0.01uM
  Growth (Fig. S2D): 11.0601
Nystatin.0.1uM
  Growth (Fig. S2D): 11.0266
Raffinose.2.
  Growth (Fig. S2D): 11.0502
Rapamycin.10nM
  Growth (Fig. S2D): 9.888
Rapamycin.50nM
  Growth (Fig. S2D): 9.494
SC.pH3
  Growth (Fig. S2D): 10.4532
SC.pH6
  Growth (Fig. S2D): 11.0119
SDS.0.01.
  Growth (Fig. S2D): 11.0053
SDS.0.02.
  Growth (Fig. S2D): 10.9934
SDS.0.05.
  Growth (Fig. S2D): 10.9282
Sorbitol.10mM
  Growth (Fig. S2D): 11.048
Sorbitol.1mM
  Growth (Fig. S2D): 11.0333
Sorbitol.5mM
  Growth (Fig. S2D): 10.9546
